Assay [1] concerns the target MeCP2-MBD aromatic cage mutants, W104, F132, Y141, F142 and F155 to alanine (group as printed for the range of KD limits). Briefly: ITC; MicroCal PEAQ-ITC, 15 °C, 750 rpm; peptide (1.5 to 2 mM) in the syringe injected into protein (80 to 100 μM) in the cell; 50 mM HEPES pH 7.5, 200 mM NaCl, 5% glycerol; single-binding site model.
Assay [2] deals with MeCP2-MBD domain wild-type, C-terminal 6xHis-tagged (UniProt P51608). The assay is described as above.
Sequence of MeCP2-MBD domain wild-type, C-terminal 6xHis-tagged (P51608 90-162): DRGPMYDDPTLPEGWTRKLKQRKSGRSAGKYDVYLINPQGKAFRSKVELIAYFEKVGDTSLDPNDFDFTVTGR

As for “histone H3(15-36)K27me3 peptide (from UniProt P68431 16-37)”, the figures for the equilibrium dissociation constant (Kd) in assay [1] and in assay [2] were more than 1 mM and 5.2 µM, respectively.

For the origin of these results see article PMC12857291.
